Data: article PMC9468158, “Transmembrane helices mediate the formation of a stable ternary complex of b5R, cyt b5, and SCD1” (Communications Biology, 2022)
Each block holds one binder with its values, some of them ahead of it.

Experiments:
soluble b5R (24-301) = molecular target: T1, soluble b5R (24-301) (mouse, UniProt Q9DCN2 24-301); assay: BLI; Octet, 30 °C, 1000 rpm; soluble cyt b5 coupled to AR2G (amine reactive) biosensors; analytes soluble b5R or SCD1 at 5, 2.5 and 1.25 µM; FPLC buffer (20 mM HEPES pH 7.5, 150 mM NaCl, 1 mM DDM) plus 0.1% BSA; KD from kon and koff of 1-exponential fits; conditions: both partners purified
T1 construct: source: E. coli BL21(DE3) (pET vector), purified (procedures similar to those for the full-length proteins)
T1 sequence (looked up): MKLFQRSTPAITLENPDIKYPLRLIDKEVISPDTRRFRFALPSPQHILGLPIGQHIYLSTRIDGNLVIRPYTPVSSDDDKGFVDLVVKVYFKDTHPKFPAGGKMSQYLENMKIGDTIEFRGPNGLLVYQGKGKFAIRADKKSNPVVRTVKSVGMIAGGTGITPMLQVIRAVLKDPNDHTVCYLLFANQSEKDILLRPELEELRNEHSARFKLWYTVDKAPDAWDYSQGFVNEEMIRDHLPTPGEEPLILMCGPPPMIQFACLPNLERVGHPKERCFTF

[1] = molecular target: T2, SCD1, individual purified protein (mouse, UniProt P13516 1-355); assay: as above; conditions: both partners purified
T2 construct: stearoyl-CoA desaturase-1 (SCD1), mouse, UniProt P13516; surmised: ENLYFQ of the TEV site is left at the C-terminus; source: HEK 293S (BacMam), purified (GFP nanobody resin, released by TEV protease, SEC in 1 mM DDM); not shown: GFP, C-terminal, cleaved
T2 sequence (looked up): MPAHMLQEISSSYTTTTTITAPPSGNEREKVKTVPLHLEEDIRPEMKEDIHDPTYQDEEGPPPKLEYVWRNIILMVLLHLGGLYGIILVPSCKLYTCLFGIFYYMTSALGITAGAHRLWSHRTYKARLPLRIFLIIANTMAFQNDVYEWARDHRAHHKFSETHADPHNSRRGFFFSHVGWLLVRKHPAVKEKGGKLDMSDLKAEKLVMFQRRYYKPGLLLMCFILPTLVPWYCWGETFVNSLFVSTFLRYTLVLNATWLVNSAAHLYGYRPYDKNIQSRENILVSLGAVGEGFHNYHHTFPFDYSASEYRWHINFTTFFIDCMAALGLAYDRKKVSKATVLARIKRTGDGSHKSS

[2] = molecular target: T3, SCD1, released from the linker-cleaved SCD1-cyt b5-b5R fusions (mouse, UniProt P13516 1-355); assay: SEC; ternary fusion SCD1-cyt b5-b5R purified, linkers cleaved by TEV protease, Superdex 200 10/300 GL in 20 mM HEPES pH 7.5, 150 mM NaCl, 1 mM DDM; three proteins in the sample; conditions: both partners purified
T3 construct: stearoyl-CoA desaturase-1 (SCD1), mouse, UniProt P13516; stands for the SCD1 chain of the ternary fusion of the full-length proteins and of the sample with soluble cyt b5 and b5R; surmised: linker residues are left after TEV cleavage; not shown: GFP, N-terminal, cleaved
T3 sequence (looked up): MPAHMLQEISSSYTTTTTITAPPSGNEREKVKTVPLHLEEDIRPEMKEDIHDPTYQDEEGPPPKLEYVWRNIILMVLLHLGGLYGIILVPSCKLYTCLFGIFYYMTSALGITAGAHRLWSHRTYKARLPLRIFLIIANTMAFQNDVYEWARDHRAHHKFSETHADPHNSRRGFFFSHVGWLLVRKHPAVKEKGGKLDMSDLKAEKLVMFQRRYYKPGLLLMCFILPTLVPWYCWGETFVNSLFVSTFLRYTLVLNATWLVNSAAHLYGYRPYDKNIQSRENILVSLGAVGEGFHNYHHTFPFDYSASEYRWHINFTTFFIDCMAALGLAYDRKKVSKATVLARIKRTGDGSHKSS

[3] = molecular target: T4, full-length b5R, released from the linker-cleaved cyt b5-b5R fusion (mouse, UniProt Q9DCN2 1-301); assay: cell-based or functional assay
T4 sequence (looked up): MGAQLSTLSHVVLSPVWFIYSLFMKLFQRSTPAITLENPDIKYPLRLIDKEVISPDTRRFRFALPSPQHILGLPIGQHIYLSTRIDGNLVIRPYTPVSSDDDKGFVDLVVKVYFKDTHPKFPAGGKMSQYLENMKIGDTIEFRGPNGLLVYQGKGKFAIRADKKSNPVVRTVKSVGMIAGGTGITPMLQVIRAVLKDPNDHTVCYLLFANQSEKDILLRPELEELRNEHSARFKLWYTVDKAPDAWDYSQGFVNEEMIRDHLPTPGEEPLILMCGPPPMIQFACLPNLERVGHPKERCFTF

[4] = molecular target: T5, SCD1, released from the linker-cleaved SCD1-cyt b5 fusions (mouse, UniProt P13516 1-355); assay: SEC; TM mutants in the linker-cleavable fusions, purified and cleaved by TEV protease; SRE-10C SEC-300 (Sepax) on HPLC, FPLC buffer, 0.75 mL/min; heme absorbance (413 nm by the results, 423 nm by the methods) gives the ratio of heterodimer to monomeric cyt b5; conditions: both partners purified
T5 construct: stearoyl-CoA desaturase-1 (SCD1), mouse, UniProt P13516; stands for the SCD1 chain of the fusion with full-length cyt b5 (wild type and TM mutants) and of the fusion with the soluble domain of cyt b5; the GFP tag stood at the C-terminus of the fusion; surmised: ENLYFQ is left at the C-terminus after cleavage
T5 sequence (looked up): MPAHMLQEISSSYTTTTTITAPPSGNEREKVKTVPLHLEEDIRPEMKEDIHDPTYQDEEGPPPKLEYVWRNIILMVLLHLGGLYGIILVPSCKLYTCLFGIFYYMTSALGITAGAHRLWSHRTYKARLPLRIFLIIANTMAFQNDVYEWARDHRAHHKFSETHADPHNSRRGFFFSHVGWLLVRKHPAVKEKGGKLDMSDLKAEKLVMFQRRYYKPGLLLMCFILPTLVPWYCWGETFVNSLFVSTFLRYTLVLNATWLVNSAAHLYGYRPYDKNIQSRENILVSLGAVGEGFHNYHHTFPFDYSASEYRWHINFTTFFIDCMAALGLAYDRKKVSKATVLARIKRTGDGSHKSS

[5] = molecular target: T4, full-length b5R, released from the …; assay: as above; conditions: both partners purified

- Kd (soluble b5R (24-301)): 2.71 µM
- Kd [1]: 4.42 µM
B1: soluble cyt b5 (4-89), wild type (domain or fragment, mouse, UniProt P56395 4-89, looked up)
chain: QSDKDVKYYTLEEIQKHKDSKSTWVILHHKVYDLTKFLEEHPGGEEVLREQAGGDATENFEDVGHSTDARELSKTYIIGELHPDDR
notes: cytochrome b5, mouse, UniProt P56395, soluble domain, residues 4-89; coupled by amines to AR2G biosensors; also called cyt b5 (WT); source: E. coli BL21(DE3) (pET vector), purified (procedures similar to those for the full-length proteins)

- Kd (soluble b5R (24-301)): 9.63 µM
- Kd [1]: 11.2 µM
B2: soluble cyt b5 (4-89) E43A (domain or fragment, mouse, UniProt P56395 4-89, looked up)
chain: QSDKDVKYYTLEEIQKHKDSKSTWVILHHKVYDLTKFLEAHPGGEEVLREQAGGDATENFEDVGHSTDARELSKTYIIGELHPDDR
notes: cytochrome b5, mouse, UniProt P56395, soluble domain, residues 4-89; coupled by amines to AR2G biosensors; also called cyt b5 (E43A); source: E. coli BL21(DE3) (pET vector), purified (procedures similar to those for the full-length proteins)

- Kd (soluble b5R (24-301)): 8.45 µM
- Kd [1]: 8.23 µM
B3: soluble cyt b5 (4-89) E49A (domain or fragment, mouse, UniProt P56395 4-89, looked up)
chain: QSDKDVKYYTLEEIQKHKDSKSTWVILHHKVYDLTKFLEEHPGGEAVLREQAGGDATENFEDVGHSTDARELSKTYIIGELHPDDR
notes: cytochrome b5, mouse, UniProt P56395, soluble domain, residues 4-89; coupled by amines to AR2G biosensors; also called cyt b5 (E49A); source: E. coli BL21(DE3) (pET vector), purified (procedures similar to those for the full-length proteins)

- binding result [2]: binds
B4: full-length b5R, released from the linker-cleaved SCD1-cyt b5-b5R fusion (enzyme, mouse, UniProt Q9DCN2 1-301, looked up)
chain: MGAQLSTLSHVVLSPVWFIYSLFMKLFQRSTPAITLENPDIKYPLRLIDKEVISPDTRRFRFALPSPQHILGLPIGQHIYLSTRIDGNLVIRPYTPVSSDDDKGFVDLVVKVYFKDTHPKFPAGGKMSQYLENMKIGDTIEFRGPNGLLVYQGKGKFAIRADKKSNPVVRTVKSVGMIAGGTGITPMLQVIRAVLKDPNDHTVCYLLFANQSEKDILLRPELEELRNEHSARFKLWYTVDKAPDAWDYSQGFVNEEMIRDHLPTPGEEPLILMCGPPPMIQFACLPNLERVGHPKERCFTF
notes: no extra residue after the C-terminus of b5R; surmised: a G is left at the N-terminus after TEV cleavage

- difference of the electron transfer rate between no NaCl and 150 mM NaCl, stable binary complex [3]: 1.04 fold
- rate of electron transfer from b5R to cyt b5 (k1, reduction of cyt b5) in the stable binary complex against the mixture of the individual proteins, 150 mM NaCl [3]: ~34 fold
B5: full-length cyt b5, released from the linker-cleaved cyt b5-b5R fusion (natural protein, mouse, UniProt P56395 1-134, looked up)
chain: MAGQSDKDVKYYTLEEIQKHKDSKSTWVILHHKVYDLTKFLEEHPGGEEVLREQAGGDATENFEDVGHSTDARELSKTYIIGELHPDDRSKIAKPSDTLITTVESNSSWWTNWVIPAISALAVALMYRLYMAED

- percent dissociation of the complex [4]: ~40%
B6: cyt b5 L125W, released from the linker-cleaved SCD1-cyt b5-TEV chimera (natural protein, mouse, UniProt P56395 1-134, looked up)
chain: MAGQSDKDVKYYTLEEIQKHKDSKSTWVILHHKVYDLTKFLEEHPGGEEVLREQAGGDATENFEDVGHSTDARELSKTYIIGELHPDDRSKIAKPSDTLITTVESNSSWWTNWVIPAISALAVAWMYRLYMAED
notes: cytochrome b5, mouse, UniProt P56395; as m11 with the mutation; source: HEK 293S (BacMam), purified as a fusion with SCD1, cleaved by TEV protease; not shown: GFP, C-terminal, cleaved

- percent dissociation of the complex [5]: ~40%
B7: cyt b5 R128A, released from the linker-cleaved cyt b5-b5R-TEV chimera (natural protein, mouse, UniProt P56395 1-134, looked up)
chain: MAGQSDKDVKYYTLEEIQKHKDSKSTWVILHHKVYDLTKFLEEHPGGEEVLREQAGGDATENFEDVGHSTDARELSKTYIIGELHPDDRSKIAKPSDTLITTVESNSSWWTNWVIPAISALAVALMYALYMAED
notes: cytochrome b5, mouse, UniProt P56395; as m6 with the mutation; source: High Five cells (Bac-to-Bac), purified as a fusion with b5R, cleaved by TEV protease

- binding result [5]: binds
B8: cyt b5 M126A, released from the linker-cleaved cyt b5-b5R-TEV chimera (natural protein, mouse, UniProt P56395 1-134, looked up)
chain: MAGQSDKDVKYYTLEEIQKHKDSKSTWVILHHKVYDLTKFLEEHPGGEEVLREQAGGDATENFEDVGHSTDARELSKTYIIGELHPDDRSKIAKPSDTLITTVESNSSWWTNWVIPAISALAVALAYRLYMAED
notes: as for B7

- percent dissociation of the complex [4]: ~10%
B9: cyt b5 Y127A, released from the linker-cleaved SCD1-cyt b5-TEV chimera (natural protein, mouse, UniProt P56395 1-134, looked up)
chain: MAGQSDKDVKYYTLEEIQKHKDSKSTWVILHHKVYDLTKFLEEHPGGEEVLREQAGGDATENFEDVGHSTDARELSKTYIIGELHPDDRSKIAKPSDTLITTVESNSSWWTNWVIPAISALAVALMARLYMAED
notes: as for B6
